Blank lines part the entries; values can stand above or below the molecule they belong to.
Key:
[1] = target: chicken CENP-C^677-864 (C-terminus of chicken CENP-C including the Cupin domain) (chicken); experiment: crystal structure
native gel or EMSA = target: the molecule itself; experiment: native gel or EMSA

stoichiometry N [1]: 2
Molecule: chicken CENP-C^677-864 (C-terminus of chicken CENP-C including the Cupin domain) (domain or fragment)

B1: human CENP-C fragment hCENP-C^760-943 (C-terminus of hCENP-C, wild type) (domain or fragment, UniProt Q03188-1 760-943, looked up)
chain: GRPSGGFVISGVLSPDTISSKRKAKENIGKVNKKSNKKRICLDNDERKTNLMVNLGIPLGDPLQPTRVKDPETREIILMDLVRPQDTYQFFVKHGELKVYKTLDTPFFSTGKLILGPQEEKGKQHVGQDILVFYVNFGDLLCTLHETPYILSTGDSFYVPSGNYYNIKNLRNEESVLLFTQIKR
binding result (native gel or EMSA): binds
